Assay results from the supplement of paper PMC9170038.

tested on: MS2 coat protein; experiment: apparent KD of MS2 coat protein, switch ON state; designed switch direction (-1 OFF switch, 1 ON switch): -1; higher = weaker reporter binding; conditions: FMN input: 0 or 200 uM; Eterna round: R93 (includes R88 designs)
Summary of the method: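 The buffer was 100 mM Tris-HCl pH 7.5 with 80 mM KCl and 4 mM MgCl2, used without or with constant ligand. In it, RNA switches transcribed on-chip from Illumina sequencing clusters were titrated with SNAP-549-labelled MS2 coat protein in twofold steps from 0.7 or 1.5 nM to 3 µM. Apparent KD for each design is the median of its normalised cluster binding-curve fits.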

Sequence | apparent KD of MS2 coat protein [nM]
AAAAAAAAAGGAUAUACAGGAGGUAAGGUCGGACAAAAAAGACAUGAGGAUCACCCAUGUAGAAGGUUUAAAAA [Excls2-X] | 39.4
CAGUACUGAGGAUAUACAUGAGGAUCACCCAUGUGAUCAAGCUACGAAAGUAGCACAUGUAGAAGGCAGUACUG [Ex3: 808] | 24
AAAAAGGGAGGAUAUACAUGAGGAUCACCCAUGUAAAAAAUCGCGGGAGGGAGGGAAGGUAGAAGGCCCAAAAA [Excls3-V] | 20.1
AAGAACCUAGGAUAUACAUGAGGAUCACCCAUGUAAAAGAAAGAAAGGGAAAAGAAAAGUAGAAGGAGGAAGAA [Heqakheperre Shoshenq II] | 12.1
GGAAAACAUGAGGAUCACCCAUGUGAGGAUAUCGAUGUCCAAAAGAAAGUGCGGGACUCGAGAAGGCACUUGGA [salish99-ex1-36] | 56.3
UCCGAACAUGAGGAUCACCCAUGUCAGGAUAUACACCCAGCAUGGAAGCCAUGCUCAAGUAGAAGGGACGGGUG [Inxeus] | 34.9
AACAUGUCAGGAUAUGUGGAAAGAAUAAAAGAAAUAAGAACACAGAAGGGACAUGAGGAUCACCCAUGUCAACA [May 31] | 27.7
AAAAAUGGAGGAUAUACAUGAGGAUCACCCAUGUGAAACAAAACAAAAAACAAAAAAAGUAGAAGGCCAAAAAA [Gilly Gone Silly 3 - Jieux - Exclusion 3] | 31.2
AAAACUGGAGGAUAUACAUGAGGAUCACCCAUGUGUGGAUGAGCUGUGUCGGCAUCACGUAGAAGGCCACAAAA [Gilly Gone Silly 38 - Jieux - Exclusion 3] | 34.4
AACAUGUAAGGAUAUGCUGCUCGUCACAAAAGUGAUGAGUAGCAGAAGGUACAUGAGGAUCACCCAUGUAAAGA [JL eternac mod 14] | 50.6
AAAAUACAUGAGGAUCACCCAUGUGAGGAUAUGAGAAAGCAAAUAAAAUAAAGCAAACUCAGAAGGCACAAAAA [EX 1 May 25] | 39.5
AAAUGACAUGAGGAUCACCCAUGUCAGGAUAUGACUUGAAAAAUAAAAUAAAAACAUGUCAGAAGGGACAUGAA [Design 47: Sub-opt E] | 16.5
AAGAAGUCAGGAUAUGCUUGUCGUCACAAAAGUGAUGACGAGCAGAAGGGACAUGAGGAUCACCCAUGUAAAGA [JL eternac mod 1] | 42.1
GAAAAGUGAGGAUAUUCGGAAGGGAAAGCGCAAACCCAACCGAAGAAGGCACAUGAGGAUCACCCAUGUGGAAG [Mat - Exaclusion 4 - Eli mod - D58] | 23.6
AAUAACAGAGGAUAUGCGAAAAUAAGCGGAAACGCAAAGGGACAUGAGGAUCACCCAUGUAGAAGGCUGGAUAA [Tetraloop... 61% 1] | 34.4
AAGAAGUCAGGAUAUACAUGAGGAUCACCCAUGUAAAAGAAAGAGGGAAAAGAGAAAAGUAGAAGGGACAAGAA [Arsinoe I] | 29.1
AUUCUACAUGAGGAUCACCCAUGUGAGGAUAUGCUAUACUAUUGUUGCAAUACUUAGAGCAGAAGGCACAUCGU [JR_EXc001_Sub801] | 30.2
AAGACUAGAGGAUAUACAUGAGGAUCACCCAUGUAACUGUCAGGAAACUGACGGAGAUGUAGAAGGCUAGUCAA [Mat - Exclusion 3 - Neo mod - D75] | 16.7
AAAAAGGGAGGAUAUACAUGAGGAUCACCCAUGUAAAACAAAAAAACAAAAAAAAAAAGUAGAAGGCCCAAAAA [Default title] | 30
AAGAACUCAGGAUAUACAUGAGGAUCACCCAUGUAAAAGAAAGAGGGAAAAGAGAAAAGUAGAAGGGAGAAGAA [Ptolemy IV Philopator] | 14
AAAGGACGAGGAUAUACAUGAGGAUCACCCAUGUAAAAAACAUAGUCAAAGGGCUUGUGUAGAAGGCGUCCAAA [Meechl Ex3 2 R2 v11] | 50.2
AAUAUGUUAGGAUAUGCGAAGUCAGGACACACACUGACGAAGCAGAAGGAACAUGAGGAUCACCCAUGUAAUAA [JR_Exclusion-4 65% 6] | 27.6
AGAAAGUCAGGAUAUGCGAAGGCGUCUGAUAGACGAGGCUAGCAGAAGGGACAUGAGGAUCACCCAUGUGAAAA [Mat - Exclusion 4 - Eli mod - D86] | 48.4

Sequence | apparent KD of MS2 coat protein [nM]
GCUGUCGUAGGAUAUACAUGAGGAUCACCCAUGUGAGAGAAAAAAGUGAGAAAGAAAAGUAGAAGGACGGUAGG [salish99-ex3-105] | 37.5
AAAAAACAUGAGGAUCACCCAUGUGAGGAUAUGCGAAACAAAAAAAACAAAAACAAAAGCAGAAGGCACAAAAA [Amethyst 33] | 25
ACCUCACAUGAGGAUCACCCAUGUUAGGAUAUGCCCGGCAGGUUCUGACCUGCCUAAAGCAGAAGGAACGUGCG [Beusus] | 17.4
AAAACAAAAGGAUAUAAAAACAAAAGUCAGGAUAUAGGAAACUAGAAGGGACAUGAGGAUCACCCAUGUAAAAC [Meechl Ex4 R2 m3] | 55.9
AAGAAGCAAGGAUAUACAUGAGGAUCACCCAUGUAAAAGAAAGAAAAGGGAAAGAAAAGUAGAAGGUGCAAAGA [Ruby 69] | 43.6
AAAAAGGUAGGAUAUACAUGAGGAUCACCCAUGUAAAAAAACGCAGAAAAAAACAAUUGUAGAAGGGCCAAAAA [Ex3 Malc#6] | 15.9
AAGAAGCGAGGAUAUACAAAAUAAAAGAAAAGAAAGAAAGAACAUGAGGAUCACCCAUGUAGAAGGCGUAAGAA [Sankhenre Sewadjtu] | 13.3
AAAAAUGGAGGAUAUACAUGAGGAUCACCCAUGUGUGGCCAUACUAUGUGGUCGUCAGGUAGAAGGCCAAAAAA [Gilly Gone Silly 23 - Jieux - Exclusion 3] | 24.9
AAUAAGUCAGGAUAUGCAAAUAAUAAAUAAAAUAAAAUAAAGCAGAAGGGACAUGAGGAUCACCCAUGUAAAUA [Opal 40] | 47.9
AAAAAACAUGAGGAUCACCCAUGUCAGGAUAUCUGUAUUCAAUCCUCGGAUUGAAUACAGAGAAGGGAUAUGAA [Ex1: 604] | 42.2
AAAAAACAUGAGGAUCACCCAUGUGAGGAUAUCGGUAGUGAGGCUAUAGUGUCAGUAAUGAGAAGGCACAUAAA [Brourd 613 Mod 11 - Jieux - Exclusion 1] | 24.6
AAAAAUUGAGGAUAUACGAACAUGUCGAAAGACGUGAAGGGACAUGAGGAUCACCCAUGUAGAAGGCGAAAGAA [Mat - Exclusion 2 - JL mod - D67] | 33.6
AAUAUCGGAGGAUAUGCAUAGAUAAAGAACCAUGUUAAAACACAUGAGGAUCACCCAUGUAGAAGGCCGAUAAA [AJ 9] | 54.1
AACAUGUCAGGAUAUGUAGCAAAAGGUGAUCAAAAAAAGCUACAGAAGGGACAUGAGGAUCACCCAUGUAAAAA [Ex4: 934] | 126
AACAGUACAGGAUAUACAUGAGGAUCACCCAUGUGAUAGGAAUAAAACAAAAAUAAAAGUAGAAGGGUACUGGA [Ruby 46] | 34
AAAAAACAAGGAUAUACAAAAAUAAAAAGAAUAAAGUGAAAACAUGAGGAUCACCCAUGUAGAAGGUGUAAAAA [Default title] | 67
AUAAACUGAGGAUAUACAUGAGGAUCACCCAUGUAAAAAAAAAAAAGUUCCUCAAAAAGUAGAAGGCAGAAUAA [JR_Exc003_Sub013] | 13.2
GGAAAACAUGAGGAUCACCCAUGUAAGGAUAUGCAAAAAAAAGGAUAUAGAAGGAAAAGCAGAAGGUACAAAGG [salish99-ex1-26] | 30.8
AAGUGGGCAGGAUAUACAUGAGGAUCACCCAUGUAAAGAAAAGAAAGAUCCGAAGAAAGUAGAAGGGCCUGCAA [Mod 1 of Ex3 sub 3, by Tesla's Dusciple Round 1] | 144
GUGUACAGAGGAUAUACAUGAGCAUGGAAUCAUGCAGGAUCACAUGAGGAUCACCCAUGUAGAAGGCUGUACAC [LROPPY Exclusion 2 - v06_mod Brourd] | 66.9
AAGAAGUCAGGAUAUGCUGCUCGUCACAAAAGUGAUGAGUAGCAGAAGGGACAUGAGGAUCACCCAUGUAAAGA [JL eternac mod 0] | 52
AAACAACAUGAGGAUCACCCAUGUUAGGAUAUGAACGAAAUAAAAUAAAAAUAAAAGUUCAGAAGGGACAAAAA [Mat - Exclusion 1 - Eli mod - D21] | 23.4
